{"source": "patent US20250116035", "about": "“A METHOD FOR REPRODUCIBLE APTAMER SELECTION USING CLOSED SEQUENCE SOLUTION SPACES” (NEOVENTURES BIOTECHNOLOGY INC., published 2025)", "key": {"[1]": {"test_system": "immunoglobulin G (IgG), pooled", "assay": "SPR", "settings": "5' thiol (immobilized on gold); SPR imaging, aptamer immobilized on gold chip; IgG 250 nM; ka 3.69E5, kd 7.56E-3"}, "[2]": {"biological_target": "human serum albumin (HSA) (Homo sapiens, UniProt P02768 P02768:25-609)", "sequence (P02768 25-609, one chain of several)": "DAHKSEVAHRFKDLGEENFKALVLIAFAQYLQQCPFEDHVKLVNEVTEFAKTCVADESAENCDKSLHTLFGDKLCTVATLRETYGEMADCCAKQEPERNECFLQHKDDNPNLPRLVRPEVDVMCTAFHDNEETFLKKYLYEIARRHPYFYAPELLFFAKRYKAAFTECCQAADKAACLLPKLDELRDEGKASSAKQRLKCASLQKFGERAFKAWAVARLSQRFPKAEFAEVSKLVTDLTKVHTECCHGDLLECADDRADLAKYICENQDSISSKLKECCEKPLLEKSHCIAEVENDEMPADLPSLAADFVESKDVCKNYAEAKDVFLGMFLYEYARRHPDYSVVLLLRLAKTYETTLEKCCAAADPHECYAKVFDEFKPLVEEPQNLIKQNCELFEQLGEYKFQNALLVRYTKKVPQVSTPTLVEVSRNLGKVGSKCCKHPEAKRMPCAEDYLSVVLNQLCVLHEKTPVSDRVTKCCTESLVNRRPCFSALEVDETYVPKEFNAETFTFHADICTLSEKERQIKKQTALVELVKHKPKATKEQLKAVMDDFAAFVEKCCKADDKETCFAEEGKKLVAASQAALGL", "assay": "SPR; counter-target; 250 nM HSA; aptamer described as selected to bind IgG and not HSA; curve only in figure", "method": "These sequences were synthesized with a 5′ thiol and immobilized onto a gold surface in triplicate spots at a concentration of 5 uM in a volume of 10 nL. A negative aptamer of the same length not selected for binding to serum albumin was also spotted on the gold chips in the same manner. These were allowed to dry, and the remainder of the surface was blocked with thiolylated polyethylene glycol with an average molecular weight of 5 kda. The gold chips were then inserted on top of a glass prism in a Horiba Openplex Surface Plasmon Resonance imaging instrument (SPRi). Human serum albumin at two concentrations (100 nM and 250 nM) was injected over the chip at a volume of 200 uL and a flow rate of 50 uL/min. We also injected a pool of immunoglobulin (IgG) at a concentration of 250 nM at the same volume and flow rates.\nBinding analysis for the selected IgG sequences was performed in a manner identical to that described for the HSA sequences."}}}
{"molecule": "CCAGATACAGACCCGAGGTGAGAATTTCAACCATCGGCGCCAACAAAACATTCTCTCAGATACAGTAGACAGC [fBIgG-2]", "values": [{"measurement": "Kd", "setting": "[1]", "result": 20.5, "unit": "nM"}]}
{"molecule": "fBIgG-2 (ssDNA, 5' thiol (immobilized on gold)) DNA: CCAGATACAGACCCGAGGTGAGAATTTCAACCATCGGCGCCAACAAAACATTCTCTCAGATACAGTAGACAGC", "values": [{"measurement": "binding result", "setting": "[2]", "result": "no binding"}]}
